Consider two molecules from publication PMC5897774, “Mitotic spindle association of TACC3 requires Aurora‐A‐dependent stabilization of a cryptic α‐helix” (The EMBO Journal, 2018).

Where two headings read alike, the source gives them in different places. Non-standard residues stand in square brackets, D forms with d. No end group written: not given here. pS = N[C@@H](COP(=O)(O)O)C(=O)O; FAM = fluorescein label

For test [1], the target named is T1, Aurora‐A (Homo sapiens, UniProt O14965, C290A/C393A).
T1 construct: pET30TEV Aurora‐A 122–403 C290A, C393A; made in house
T1 sequence (O14965 122-403 C290A/C393A): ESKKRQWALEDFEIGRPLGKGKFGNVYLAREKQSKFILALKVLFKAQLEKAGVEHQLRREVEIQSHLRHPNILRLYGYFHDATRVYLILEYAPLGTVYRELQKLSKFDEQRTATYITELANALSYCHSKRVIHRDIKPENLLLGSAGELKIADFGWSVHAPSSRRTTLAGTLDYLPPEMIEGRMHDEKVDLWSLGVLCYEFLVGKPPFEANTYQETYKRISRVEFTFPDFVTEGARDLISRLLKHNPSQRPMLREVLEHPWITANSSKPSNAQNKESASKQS
Kind of test: Radioactive 32P‐ATP kinase assay, MBP substrate. Format: biochemical. The conditions noted are these: 0.625 μM phosphorylated Aurora‐A, 5 μM TACC3^N‐ACID, 0.25 mg/ml MBP, 10 min, scintillation counting, duplicate. The procedure: (§1) Figure EV2 Biochemical and structural analysis of the Aurora‐A/TACC3 complex • FP assay between FAM‐TACC3 519–570 and Aurora‐A. Reactions were performed in triplicate. Error bars represent standard deviation. […] Error bars represent standard deviation. […] This peptide was based on the location of a sulphate ion, originating from the crystallization solution, at the interface of the Aurora‐A/TACC3 interface in the crystal structure, close to TACC3 T534. […] Myelin basic protein (MBP) was used as a generic kinase substrate. Incorporation of radioisotope was measured by scintillation counting. Reactions were performed in duplicate. Error bars represent standard error. Assays were compared to the WT TACC3^N‐ACIDH6c reaction by one‐way ANOVA with Dunnett's post hoc test. […], **P < 0.01 and ****P < 0.0001. • Multiple sequence alignment of TACC3 (above) and Aurora‐A (below) orthologs spanning the interaction binding interface. Key binding residues are boxed in red. The TACC3 phosphorylation sites, S552 and S558, are boxed in blue. The TACC3 LL motif required for binding to CHC is boxed in green. The TACC3 α‐helix produced on binding to CHC is identified by a black line. TEXT PRINTED IN THE PICTURE: (A) TACC3 519-570: 3.0 ± 0.2 μM | (B) WT: 20 ± 1 μM | (B) R526A: 49 ± 2 μM | (B) phospho-T534: 14 ± 1 μM
Radioactive ^32P‐ATP kinase assays were performed as described previously (Burgess et al, 2015). In brief, 0.625 μM Aurora‐A^M3KD WT or selected mutant was incubated with 0.25 mg/ml MBP alone and in the presence of 5 μM TACC3^N‐ACID WT or mutant for 10 min. Reactions were terminated by the addition of 2% (v/v) orthophosphoric acid. Samples were spotted onto P81 Whatman paper, washed extensively with 0.2% (v/v) orthophosphoric acid and incorporation of radioisotope measured by scintillation counting.

In test [2] the target is T2, Aurora‐A R151A (Homo sapiens, UniProt O14965, C290A/C393A/R151A).
T2 construct: pET30TEV Aurora‐A 122–403 C290A, C393A were produced in a similar manner; made in house
T2 sequence (O14965 122-403 R151A/C290A/C393A): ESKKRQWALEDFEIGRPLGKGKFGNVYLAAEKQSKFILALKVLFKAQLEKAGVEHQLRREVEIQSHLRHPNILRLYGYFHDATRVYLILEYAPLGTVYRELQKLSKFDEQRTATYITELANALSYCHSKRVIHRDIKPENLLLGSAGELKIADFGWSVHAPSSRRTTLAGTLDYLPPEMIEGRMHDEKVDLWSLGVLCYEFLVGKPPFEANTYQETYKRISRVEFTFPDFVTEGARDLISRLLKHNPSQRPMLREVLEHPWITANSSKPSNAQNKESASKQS
In words: Radioactive 32P‐ATP kinase assay, MBP substrate, Aurora‐A R151A. Format: biochemical. Conditions: 0.625 μM Aurora‐A R151A, 5 μM TACC3^N‐ACID, 0.25 mg/ml MBP, 10 min, scintillation counting, duplicate. How it is done: as §1, with “The TACC3 α‐helix produced on binding to CHC is identified by a black line. TEXT PRINTED IN THE PICTURE: (A) TACC3 519-570: 3.0 ± 0.2 μM | (B) WT: 20 ± 1 μM | (B) R526A: 49 ± 2 μM | (B) phospho-T534: 14 ± 1 μM” left out
Radioactive ^32P‐ATP kinase assays were performed as described previously (Burgess et al, 2015). […] Samples were spotted onto P81 Whatman paper, washed extensively with 0.2% (v/v) orthophosphoric acid and incorporation of radioisotope measured by scintillation counting.

Test [3] concerns unphosphorylated Aurora‐A KD. In words: Autophosphorylation assay of unphosphorylated Aurora‐A KD (Western blot αphospho‐T288). The format is biochemical, human. Conditions: unphosphorylated Aurora‐A 122–403, 1 h, room temperature. An excerpt:
(§2) Figure 2 TACC3 523–534 forms a docking interaction on the N‐lobe of Aurora‐A • Magnified view of the site 1 interaction. • Schematic showing the key features of the TACC3/Aurora‐A interface. • FP assays of binding between site 1 of TACC3 and Aurora‐A. The sequence of TACC3 present in the complex crystal structure is shown (top) with the residues of the site 1 FP peptide coloured orange and mutated residues identified by coloured circles corresponding to the curves shown in the FP assay (below). Data represent mean of three experiments ± SD. […] Data represent mean of three experiments ± SD. […] Reactions were analysed by SDS–PAGE (above) and Western blotting with an αphospho‐T288 Aurora‐A antibody (below). […] They are listed as printed.
(§3) Autophosphorylation assays were performed as for radioactive ^32P‐ATP reactions using Aurora‐A 122–403 co‐expressed with lambda phosphatase for 1 h at room temperature with His‐Aurora‐A D274N as a substrate in replace of MBP. Reactions were resolved by SDS–PAGE and subject to Western blotting using an α‐phospho‐T288 Aurora‐A antibody (CST 2914, 1:2,000) as per the manufacturer's recommendation.
On the technique in general: A western blot detects proteins with antibodies after separation by electrophoresis.

The test system of test [4] is Aurora‐A KD (substrate: Aurora‐A D274N). Kind of test: Substrate phosphorylation of kinase‐dead Aurora‐A D274N by Aurora‐A KD (Western blot αphospho‐T288). Format: biochemical, human. The conditions noted are these: Aurora‐A D274N as substrate, 1 h, room temperature.
From the text: as §2, §3

Test [5] deals with T1, Aurora‐A. Details: method as in Burgess et al, 2015. The conditions noted are these: ref Burgess et al, 2015, cited from earlier work.
Test [6] concerns the target T3, CHC 1–574 R481E (UniProt Q00610 1-574, R481E).
T3 construct: source: expressed and purified as the WT protein (modified pGEX vector; GST cleaved with TEV)
T3 sequence (looked up): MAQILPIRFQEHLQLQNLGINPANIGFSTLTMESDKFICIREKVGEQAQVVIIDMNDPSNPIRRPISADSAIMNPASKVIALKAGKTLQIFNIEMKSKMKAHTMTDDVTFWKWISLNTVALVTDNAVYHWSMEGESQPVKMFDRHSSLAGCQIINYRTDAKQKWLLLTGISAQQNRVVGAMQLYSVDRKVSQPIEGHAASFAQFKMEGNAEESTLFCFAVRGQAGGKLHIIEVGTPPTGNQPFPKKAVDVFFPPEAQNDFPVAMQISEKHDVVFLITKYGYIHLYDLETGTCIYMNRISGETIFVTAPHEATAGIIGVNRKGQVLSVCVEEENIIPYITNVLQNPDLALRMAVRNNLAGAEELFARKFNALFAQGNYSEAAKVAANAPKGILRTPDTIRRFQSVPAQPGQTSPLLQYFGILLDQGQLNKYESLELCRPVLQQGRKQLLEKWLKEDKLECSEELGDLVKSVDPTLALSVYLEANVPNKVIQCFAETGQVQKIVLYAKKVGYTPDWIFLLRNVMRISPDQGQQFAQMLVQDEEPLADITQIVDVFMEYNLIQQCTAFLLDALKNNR
Kind of test: fluorescence polarisation; CHC proteins serially diluted in 20 mM HEPES–NaOH pH 7.5, 200 mM NaCl, 5 mM DTT; 50 nM FAM‐labelled TACC3 peptide; 30 min at room temperature; read at 25°C. The conditions noted are these: both partners purified.

The target in test [7] is T4, CHC 1–574 L480D (UniProt Q00610 1-574, L480D).
T4 construct: source: expressed and purified as the WT protein (modified pGEX vector; GST cleaved with TEV)
T4 sequence (looked up): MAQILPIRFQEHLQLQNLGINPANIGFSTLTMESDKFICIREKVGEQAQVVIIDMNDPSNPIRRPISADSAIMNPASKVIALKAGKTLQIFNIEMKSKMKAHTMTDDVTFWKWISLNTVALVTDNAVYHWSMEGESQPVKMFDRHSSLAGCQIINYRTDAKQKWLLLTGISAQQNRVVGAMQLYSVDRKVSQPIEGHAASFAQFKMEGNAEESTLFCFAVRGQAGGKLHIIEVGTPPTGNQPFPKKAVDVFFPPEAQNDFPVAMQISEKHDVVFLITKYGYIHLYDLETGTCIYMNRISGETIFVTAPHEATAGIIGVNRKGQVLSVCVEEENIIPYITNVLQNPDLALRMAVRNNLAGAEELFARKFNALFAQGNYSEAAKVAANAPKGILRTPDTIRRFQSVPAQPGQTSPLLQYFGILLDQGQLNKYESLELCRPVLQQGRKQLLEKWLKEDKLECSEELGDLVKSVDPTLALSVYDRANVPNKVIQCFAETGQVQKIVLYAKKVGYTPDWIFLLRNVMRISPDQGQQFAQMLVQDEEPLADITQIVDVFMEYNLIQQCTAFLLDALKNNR
The description is as above. Conditions: both partners purified.

For test [8], the target named is T5, CHC 1–574 L476D, L480D (UniProt Q00610 1-574, L476D | L480D).
T5 construct: source: expressed and purified as the WT protein (modified pGEX vector; GST cleaved with TEV)
T5 sequence (looked up): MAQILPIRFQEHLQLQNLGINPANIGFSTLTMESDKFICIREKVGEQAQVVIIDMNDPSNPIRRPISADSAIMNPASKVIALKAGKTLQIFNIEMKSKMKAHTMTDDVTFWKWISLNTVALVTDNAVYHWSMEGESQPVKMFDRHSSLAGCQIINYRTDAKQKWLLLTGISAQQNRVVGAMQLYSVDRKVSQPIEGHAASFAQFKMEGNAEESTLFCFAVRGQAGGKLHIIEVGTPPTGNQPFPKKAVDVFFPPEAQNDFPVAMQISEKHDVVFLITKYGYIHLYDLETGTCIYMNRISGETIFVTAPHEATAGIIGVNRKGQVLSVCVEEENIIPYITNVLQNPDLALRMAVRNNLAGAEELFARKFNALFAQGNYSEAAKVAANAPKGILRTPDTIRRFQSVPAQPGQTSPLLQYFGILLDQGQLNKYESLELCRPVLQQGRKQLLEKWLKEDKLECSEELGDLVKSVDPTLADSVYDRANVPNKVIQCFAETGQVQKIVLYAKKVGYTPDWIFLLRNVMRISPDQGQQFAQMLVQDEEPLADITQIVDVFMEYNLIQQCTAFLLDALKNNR
The description is as above. The conditions noted are these: both partners purified.

The target of test [9] is T6, CHC 1–574 L503A/Y504A (UniProt Q00610 1-574, L503A | Y504A).
T6 construct: source: expressed and purified as the WT protein (modified pGEX vector; GST cleaved with TEV)
T6 sequence (looked up): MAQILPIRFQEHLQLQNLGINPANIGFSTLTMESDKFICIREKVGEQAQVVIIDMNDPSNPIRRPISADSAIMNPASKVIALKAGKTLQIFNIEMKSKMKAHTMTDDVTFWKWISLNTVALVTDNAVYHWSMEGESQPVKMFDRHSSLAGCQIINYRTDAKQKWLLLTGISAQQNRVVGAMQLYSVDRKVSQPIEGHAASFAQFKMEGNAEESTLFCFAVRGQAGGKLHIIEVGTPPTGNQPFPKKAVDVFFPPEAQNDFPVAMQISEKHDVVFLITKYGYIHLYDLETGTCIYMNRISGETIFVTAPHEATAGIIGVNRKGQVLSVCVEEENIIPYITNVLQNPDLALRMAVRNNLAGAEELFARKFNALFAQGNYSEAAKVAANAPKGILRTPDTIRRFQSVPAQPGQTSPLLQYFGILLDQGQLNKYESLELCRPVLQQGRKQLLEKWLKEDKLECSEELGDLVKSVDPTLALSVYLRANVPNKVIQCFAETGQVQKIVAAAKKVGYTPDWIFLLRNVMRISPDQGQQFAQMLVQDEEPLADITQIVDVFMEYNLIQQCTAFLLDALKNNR
The test is described as above. The conditions noted are these: both partners purified.

On to “TACC3^N‐ACID: N-terminal fragment of the Aurora-A and CHC interaction domain of TACC3, aa519–563 (ELKEESFRDPAEVLGTGAEVDYLEQFGTSSFKESALRKQSLYLKF; not fully specified)”, for which the “stimulation of Aurora‐A activity” value in test [1] is given as “eightfold”. In addition, in [2], the “stimulation of Aurora‐A R151A activity by TACC3” value is recorded as “reduced stimulation”. Moreover, the “Aurora‐A autophosphorylation on T288” value in [3] is reported as “stimulated”. Moreover, the “substrate phosphorylation on T288 (Aurora‐A D274N)” value in [4] is given as “stimulated”. The Kd in test [5] (microscale thermophoresis and NMR, read-out: K d measured by MST and NMR) was 6 to 8 µM; in test [5] (previous data, effect of F525A mutation, read-out: K d of the interaction) it was 5.7 µM.

B1: FAM‐TACC3 549–570 phosphorylated on S558 (FAM‐phospho‐TACC3^CID) (peptide, UniProt Q9Y6A5 549-570, looked up)
peptide: {FAM}-FKESALRKQ[pS]LYLKFDPLLRDS
notes: TACC3, human, aa549–570 (TACC3^CID); also called pTACC3^CID; FAM‐labelled pTACC3^CID; source: FAM‐labelled peptide (FAM‐TACC3 peptides: PPR, Cambridge; Almac, Craigavon)
On to B1, for which the Kd in test [6], in test [7], in test [8] and in [9] was more than 300 µM throughout.
